Measurements taken from patent US20240148898A1 (CELLEMEDY, published 2024).

B1: DE-gp100-huHF (other)
chain: MHHHHHHLETTASTSQVRQNYHQDSEAAINRQINLELYASYVYLSMSYYFDRDDVALKNFAKYFLHQSHEEREHAEKLMKLQNQRGGRIFLQDIKKPDCDDWESGLNAMECALHLEKNVNQSLLELHKLATDKNDPHLCDFIETHYLNEQVKAIKELGDHVTNLRKMGAPEGSKVPRNQDWLEFSGLAEYLFDKHTLGDSDNES
modifications: One monomer is given; the particle is a self-assembled 24-mer. In the MST assay the His tag carried RED-tris-NTA dye non-covalently.
notes: also called huHF-DE-gp100; gp100-huHF (DE loop)
B2: DE-AH1-huHF (other)
chain: HHHHHHMTTASTSQVRQNYHQDSEAAINRQINLELYASYVYLSMSYYFDRDDVALKNFAKYFLHQSHEEREHAEKLMKLQNQRGGRIFLQDIKKPDCDDWESGLNAMECALHLEKNVNQSLLELHKLATDKNDPHLCDFIETHYLNEQVKAIKELGDHVTNLRKMGAPESPSYVYHQFSGLAEYLFDKHTLGDSDNES
notes: also called AH1-huHF (DE loop); TSA insertion site DE, AH1
B3: NA-gp100-huHF (other)
chain: MHHHHHHTTASTSKVPRNQDWLQVRQNYHQDSEAAINRQINLELYASYVYLSMSYYFDRDDVALKNFAKYFLHQSHEEREHAEKLMKLQNQRGGRIFLQDIKKPDCDDWESGLNAMECALHLEKNVNQSLLELHKLATDKNDPHLCDFIETHYLNEQVKAIKELGDHVTNLRKMGAPESGLAEYLFDKHTLGDSDNES
modifications: One monomer is given; the particle is a self-assembled 24-mer. In the MST assay the His tag carried RED-tris-NTA dye non-covalently.
notes: also called gp100 fused between N-terminus and A helix; TSA insertion site NA, gp100
B4: CD-gp100-huHF (other)
chain: HHHHHHMTTASTSQVRQNYHQDSEAAINRQINLELYASYVYLSMSYYFDRDDVALKNFAKYFLHQSHEEREHAEKLMKLQNQRGGRIFLQDIKKPDCDDWESGLNAMECALHLEKNVNQSLLELHKLATDKNDKVPRNQDWLPHLCDFIETHYLNEQVKAIKELGDHVTNLRKMGAPESGLAEYLFDKHTLGDSDNES
notes: also called CD-loop-gp100; huHF-CD-gp100
B5: CD-AH1-huHF (other)
chain: HHHHHHMTTASTSQVRQNYHQDSEAAINRQINLELYASYVYLSMSYYFDRDDVALKNFAKYFLHQSHEEREHAEKLMKLQNQRGGRIFLQDIKKPDCDDWESGLNAMECALHLEKNVNQSLLELHKLATDKNDSPSYVYHQFPHLCDFIETHYLNEQVKAIKELGDHVTNLRKMGAPESGLAEYLFDKHTLGDSDNES
notes: also called huHF-CD loop-AH1; CD-loop-AH1
B6: AB-gp100-huHF (other)
chain: HHHHHHMTTASTSQVRQNYHQDSEAAINRQINLELYASYVYLSMSYYFDRDDKVPRNQDWLVALKNFAKYFLHQSHEEREHAEKLMKLQNQRGGRIFLQDIKKPDCDDWESGLNAMECALHLEKNVNQSLLELHKLATDKNDPHLCDFIETHYLNEQVKAIKELGDHVTNLRKMGAPESGLAEYLFDKHTLGDSDNES
notes: also called gp100-huHF (AB loop); TSA insertion site AB, gp100
B7: AB-AH1-huHF (other)
chain: HHHHHHMTTASTSQVRQNYHQDSEAAINRQINLELYASYVYLSMSYYFDRDDSPSYVYHQFVALKNFAKYFLHQSHEEREHAEKLMKLQNQRGGRIFLQDIKKPDCDDWESGLNAMECALHLEKNVNQSLLELHKLATDKNDPHLCDFIETHYLNEQVKAIKELGDHVTNLRKMGAPESGLAEYLFDKHTLGDSDNES
notes: also called AH1-huHF (AB loop); TSA insertion site AB, AH1
B8: EC-gp100-huHF (other)
chain: MHHHHHHEFTTASTSQVRQNYHQDSEAAINRQINLELYASYVYLSMSYYFDRDDVALKNFAKYFLHQSHEEREHAEKLMKLQNQRGGRIFLQDIKKPDCDDWESGLNAMECALHLEKNVNQSLLELHKLATDKNDPHLCDFIETHYLNEQVKAIKELGDHVTNLRKMGAPESGLAEYLFDKHTLGDSKVPRNQDWLDNES
modifications: One monomer is given; the particle is a self-assembled 24-mer. In the MST assay the His tag carried RED-tris-NTA dye non-covalently.
notes: also called gp100 fused between E helix and C-terminus; TSA insertion site EC, gp100
B9: BC-gp100-huHF (other)
chain: HHHHHHMTTASTSQVRQNYHQDSEAAINRQINLELYASYVYLSMSYYFDRDDVALKNFAKYFLHQSHEEREHAEKLMKLQNQRGGRIFLQDIKKPDCDDKVPRNQDWLWESGLNAMECALHLEKNVNQSLLELHKLATDKNDPHLCDFIETHYLNEQVKAIKELGDHVTNLRKMGAPESGLAEYLFDKHTLGDSDNES
notes: also called gp100-huHF (BC loop); TSA insertion site BC, gp100
B10: BC-AH1-huHF (other)
chain: HHHHHHMTTASTSQVRQNYHQDSEAAINRQINLELYASYVYLSMSYYFDRDDVALKNFAKYFLHQSHEEREHAEKLMKLQNQRGGRIFLQDIKKPDCDDSPSYVYHQFWESGLNAMECALHLEKNVNQSLLELHKLATDKNDPHLCDFIETHYLNEQVKAIKELGDHVTNLRKMGAPESGLAEYLFDKHTLGDSDNES
notes: also called AH1-huHF (BC loop); TSA insertion site BC, AH1

Tests used:
[1] = target: T1, transferrin receptor (TfR), species not stated; assay: Microscale Thermophoresis (MST) with the transferrin receptor, Example 5; species of TfR not given on the sheet or in the legend (value coincides with the Mouse TfR row of Table 5)
T1 construct: also called the transferrin receptor
T1 sequence (P02786 whole entry): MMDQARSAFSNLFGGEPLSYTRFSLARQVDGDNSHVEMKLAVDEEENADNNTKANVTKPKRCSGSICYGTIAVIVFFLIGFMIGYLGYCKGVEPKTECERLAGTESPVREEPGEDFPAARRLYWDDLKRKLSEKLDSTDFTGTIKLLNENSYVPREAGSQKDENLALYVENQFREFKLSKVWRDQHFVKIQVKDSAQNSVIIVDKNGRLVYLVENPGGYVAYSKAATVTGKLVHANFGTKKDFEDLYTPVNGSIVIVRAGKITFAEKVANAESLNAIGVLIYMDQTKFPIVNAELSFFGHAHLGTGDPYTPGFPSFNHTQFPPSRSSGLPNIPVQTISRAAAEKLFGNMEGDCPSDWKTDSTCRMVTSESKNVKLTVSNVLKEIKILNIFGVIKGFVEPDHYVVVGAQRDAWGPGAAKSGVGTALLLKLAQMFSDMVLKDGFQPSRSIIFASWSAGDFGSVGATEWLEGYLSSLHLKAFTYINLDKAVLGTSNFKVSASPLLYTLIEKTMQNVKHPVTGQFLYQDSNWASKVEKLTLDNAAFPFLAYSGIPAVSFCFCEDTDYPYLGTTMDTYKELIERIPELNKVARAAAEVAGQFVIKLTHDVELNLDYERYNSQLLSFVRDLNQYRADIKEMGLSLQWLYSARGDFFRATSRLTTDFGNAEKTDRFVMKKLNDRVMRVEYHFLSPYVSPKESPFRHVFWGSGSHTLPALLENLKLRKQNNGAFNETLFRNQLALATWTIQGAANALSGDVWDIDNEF

[2] = target: T2, mouse transferrin receptor (mouse, UniProt Q62351 89-763, limits assumed); assay: MST (Monolith NT.115), His-tag-dye-labelled protein, TfR titrated
T2 construct: also called TfR Mouse
T2 sequence (Q62351 89-763 limits assumed): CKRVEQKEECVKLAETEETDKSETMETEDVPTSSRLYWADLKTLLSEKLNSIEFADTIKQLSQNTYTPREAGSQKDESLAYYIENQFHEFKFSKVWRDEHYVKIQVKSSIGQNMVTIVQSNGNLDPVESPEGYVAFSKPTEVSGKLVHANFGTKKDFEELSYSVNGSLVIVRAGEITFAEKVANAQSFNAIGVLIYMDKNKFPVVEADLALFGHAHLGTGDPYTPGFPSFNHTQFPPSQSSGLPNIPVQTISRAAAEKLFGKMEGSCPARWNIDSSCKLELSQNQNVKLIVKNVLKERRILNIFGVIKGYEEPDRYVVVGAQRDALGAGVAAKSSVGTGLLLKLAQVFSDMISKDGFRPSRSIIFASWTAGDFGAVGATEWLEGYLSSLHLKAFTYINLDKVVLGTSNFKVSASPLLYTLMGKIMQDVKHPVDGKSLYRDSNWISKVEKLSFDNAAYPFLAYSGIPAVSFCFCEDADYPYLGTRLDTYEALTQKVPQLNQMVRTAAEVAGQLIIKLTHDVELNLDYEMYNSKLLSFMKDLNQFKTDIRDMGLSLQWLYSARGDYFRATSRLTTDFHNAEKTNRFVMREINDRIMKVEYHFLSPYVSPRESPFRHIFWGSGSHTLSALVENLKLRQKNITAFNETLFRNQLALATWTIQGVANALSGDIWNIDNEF
Method: (§1) First, 100 μl of dye that specifically binds to a hexa-His tag (RED-tris-NTA 2nd Generation Dye) was prepared at a concentration of 50 nM, along with 100 μl of the produced protein at a concentration of 200 nM, followed by mixing the same and incubating at room temperature for 30 minutes. The incubated product was centrifuged at 13000 rpm for 10 minutes at 4° C. by a centrifuge, thus to separate the supernatant and obtain a dye-labeled protein.
(§2) Then, 25 μl of 9.65 μM transferrin receptor was added to the 1st PCR tube; 10 μl of PBS-T (PBS+0.5% tween 20) buffer was added to 2nd to 16th PCR tubes; 10 μl of transferrin in the 1st PCR tube was transferred to the 2nd PCR tube; and 10 μl was again transferred from the 2nd PCR tube to the 3rd PCR tube. Likewise, this procedure was continued up to the 16th tube thus to perform ½ dilution in a sequential order so that each of the 2nd to 16th PCR tubes becomes 20 μl.
(§3) Thereafter, 10 μl of the dye-labeled protein was added to each PCR tube, and the reaction was performed at room temperature for 1 hour.

[3] = target: T3, human transferrin receptor (human, UniProt P02786 89-760, limits assumed); assay: as above
T3 construct: also called TfR Human
T3 sequence (P02786 89-760 limits assumed): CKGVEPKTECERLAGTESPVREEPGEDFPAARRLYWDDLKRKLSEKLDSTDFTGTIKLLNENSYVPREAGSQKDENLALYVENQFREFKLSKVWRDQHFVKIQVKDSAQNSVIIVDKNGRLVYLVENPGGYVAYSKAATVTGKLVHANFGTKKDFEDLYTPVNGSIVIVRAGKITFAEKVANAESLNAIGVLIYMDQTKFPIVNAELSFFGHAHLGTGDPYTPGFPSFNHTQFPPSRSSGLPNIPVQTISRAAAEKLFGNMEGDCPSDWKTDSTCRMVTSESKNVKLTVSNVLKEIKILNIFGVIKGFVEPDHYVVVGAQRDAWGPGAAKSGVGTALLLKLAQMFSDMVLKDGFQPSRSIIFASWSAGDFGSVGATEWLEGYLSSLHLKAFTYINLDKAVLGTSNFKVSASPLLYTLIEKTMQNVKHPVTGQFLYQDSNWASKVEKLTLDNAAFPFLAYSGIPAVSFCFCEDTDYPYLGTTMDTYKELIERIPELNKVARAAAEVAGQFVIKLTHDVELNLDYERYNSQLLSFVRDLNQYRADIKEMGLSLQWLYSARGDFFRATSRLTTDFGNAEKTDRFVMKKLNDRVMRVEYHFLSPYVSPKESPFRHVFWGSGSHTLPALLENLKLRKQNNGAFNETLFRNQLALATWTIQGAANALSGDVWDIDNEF
Method: as §1, §2, §3

Binder	Kd [1]	Kd [2]	Kd [3]
B1	30.5 nM	30.5 nM	9.78 nM
B2			6.11 nM
B3			152 nM
B4		15.9 nM	4.89 nM
B5			3.45 nM
B6		40.8 nM	29.7 nM
B7			10.9 nM
B8			5.68 nM
B9		48 nM	14 nM
B10			107 nM
